Assay results from patent US20160251408.

Columns and labels:
[1] = tested on: VWF-034 (VWF D′D3-288XTEN-LVPR-Fc fusion construct)
[2] = tested on: VWF-055 (VWF D′D3-Fc fusion construct; 34 aa VWF linker comprising an a2 region from FVIII)
VWF-055 (VWF D′D3-Fc fusion construct; 34 aa VWF linker comprising an a2 region from FVIII), sequence (chain, as listed by the source): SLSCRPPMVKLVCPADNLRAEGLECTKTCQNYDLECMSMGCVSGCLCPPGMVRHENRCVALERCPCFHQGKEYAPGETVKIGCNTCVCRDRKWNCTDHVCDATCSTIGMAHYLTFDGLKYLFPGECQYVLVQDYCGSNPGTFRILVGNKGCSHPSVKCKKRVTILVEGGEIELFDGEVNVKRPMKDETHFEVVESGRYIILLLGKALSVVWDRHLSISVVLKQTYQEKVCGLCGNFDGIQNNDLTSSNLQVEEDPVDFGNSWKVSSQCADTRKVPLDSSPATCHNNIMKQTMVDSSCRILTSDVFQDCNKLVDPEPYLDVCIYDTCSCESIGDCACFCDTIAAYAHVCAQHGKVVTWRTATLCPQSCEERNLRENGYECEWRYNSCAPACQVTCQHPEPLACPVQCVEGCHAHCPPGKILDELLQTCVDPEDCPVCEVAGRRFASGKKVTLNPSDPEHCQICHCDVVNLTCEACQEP

VWF-034 (VWF D′D3-288XTEN-LVPR-Fc fusion construct), sequence (chain, as listed by the source): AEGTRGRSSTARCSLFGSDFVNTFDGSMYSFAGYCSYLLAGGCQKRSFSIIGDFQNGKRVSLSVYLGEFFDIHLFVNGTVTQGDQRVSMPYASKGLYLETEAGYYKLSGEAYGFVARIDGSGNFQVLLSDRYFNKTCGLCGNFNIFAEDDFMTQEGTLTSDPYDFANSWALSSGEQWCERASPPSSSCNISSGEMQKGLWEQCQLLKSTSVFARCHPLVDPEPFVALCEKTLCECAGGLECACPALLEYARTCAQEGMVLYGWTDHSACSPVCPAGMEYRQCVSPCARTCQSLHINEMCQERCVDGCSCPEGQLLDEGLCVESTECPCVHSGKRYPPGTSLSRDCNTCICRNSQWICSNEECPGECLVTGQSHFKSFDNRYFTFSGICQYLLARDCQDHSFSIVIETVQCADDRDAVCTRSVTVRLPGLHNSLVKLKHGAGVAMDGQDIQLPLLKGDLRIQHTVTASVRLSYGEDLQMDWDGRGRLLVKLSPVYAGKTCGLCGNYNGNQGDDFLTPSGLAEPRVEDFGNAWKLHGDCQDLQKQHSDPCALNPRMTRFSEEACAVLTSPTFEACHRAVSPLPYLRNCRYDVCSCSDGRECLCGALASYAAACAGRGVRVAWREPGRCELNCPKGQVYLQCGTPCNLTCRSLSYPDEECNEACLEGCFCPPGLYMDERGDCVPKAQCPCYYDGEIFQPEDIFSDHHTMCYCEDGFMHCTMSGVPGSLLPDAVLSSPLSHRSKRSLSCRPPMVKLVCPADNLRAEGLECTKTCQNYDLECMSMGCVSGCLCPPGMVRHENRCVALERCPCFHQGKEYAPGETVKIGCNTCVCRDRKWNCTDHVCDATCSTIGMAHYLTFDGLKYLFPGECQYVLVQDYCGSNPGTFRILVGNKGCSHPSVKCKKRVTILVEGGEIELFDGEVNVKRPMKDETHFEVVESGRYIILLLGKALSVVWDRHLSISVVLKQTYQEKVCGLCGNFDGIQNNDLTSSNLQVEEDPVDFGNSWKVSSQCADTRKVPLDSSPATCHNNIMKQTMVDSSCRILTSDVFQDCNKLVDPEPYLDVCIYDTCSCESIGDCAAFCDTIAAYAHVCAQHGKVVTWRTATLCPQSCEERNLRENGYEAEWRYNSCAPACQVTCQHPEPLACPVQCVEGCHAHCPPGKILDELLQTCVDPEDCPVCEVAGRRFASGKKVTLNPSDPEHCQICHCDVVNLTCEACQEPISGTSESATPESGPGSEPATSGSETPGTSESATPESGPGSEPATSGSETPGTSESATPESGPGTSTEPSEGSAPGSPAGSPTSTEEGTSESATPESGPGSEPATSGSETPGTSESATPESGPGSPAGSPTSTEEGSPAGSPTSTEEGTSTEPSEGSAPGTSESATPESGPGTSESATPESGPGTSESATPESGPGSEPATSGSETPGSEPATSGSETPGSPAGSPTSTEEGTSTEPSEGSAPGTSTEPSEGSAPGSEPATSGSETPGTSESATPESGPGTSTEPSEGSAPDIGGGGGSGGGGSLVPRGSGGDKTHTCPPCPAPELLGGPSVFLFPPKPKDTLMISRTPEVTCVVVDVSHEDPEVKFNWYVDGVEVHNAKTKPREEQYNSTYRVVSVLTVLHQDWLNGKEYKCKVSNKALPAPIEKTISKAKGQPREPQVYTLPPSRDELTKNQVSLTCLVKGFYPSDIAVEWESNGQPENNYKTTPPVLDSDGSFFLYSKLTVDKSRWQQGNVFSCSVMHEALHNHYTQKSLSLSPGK

## human alpha-thrombin
[1]
  thrombin cleavage rate relative to VWF-031 (Biacore): displayed slower cleavage compared to VWF-031
[2]
  thrombin cleavage relative to VWF-039 (Biacore): displayed similar thrombin cleavage as VWF-039 construct
